Data reported in patent US20190127480A1 (Regeneron, published 2019).
Positions count from the first letter of the chain named.

B1: H1H5758B (antibody, human IgG1, V domains shown)
VH: EVQLVESGGGVVQPGRSLRLSCAASGFTFSSYGMHWVRQAPGKGLEWVTVILHDGSNRYYADSVKGRFTISRDNSKNTLYLQMNILRAEDTAVYYCTKGAMVRGVPYNHYYGMDVWGQGTTVTVSS
VL: DIVMTQSPSSLSASVGDRVTITCRASQGIRNDLGWYQQKPGKAPKRLIYAASNLQSGVPSRFSGSGSGTEFTLTISSLQPEDFATYYCLQHNSYPYTFGQGTKLEIKR
notes: H1H: human IgG1 Fc; divalent
B2: H1H5763P (antibody, human IgG1, V domains shown)
VH: B1 VH with E1Q, F27L, T49A, L52S, H53Y, R58K, A61T, I85S, T97A, H109Y
VL: DIQMTQSPSSLSASVGDRVTITCRASQGIRNDLGWYQQKPGKAPKRLIYAASSLQSGVPSRFSGSGSGTEFTLTISSLQPEDFATYYCLQHNSYPYTFGQGTKLEIK
notes: H1H: human IgG1 Fc; divalent
B3: H1H5764P (antibody, human IgG1, V domains shown)
VH: QVQLVESGGGVVQPGRSLRLSCAASGFTFRSFGMHWVRQAPGKGLEWVAVISYDGNYKYYADSVKGRFTISRDNSKNTLYLQMNSLRAEDTAVHYCAKGAMVRGVPYNFYYGMDVWGQGTTVTVSS
VL: B2 VL with G28V, V58I
notes: H1H: human IgG1 Fc; divalent
B4: H1H5778P (antibody, human IgG1, V domains shown)
VH: EVQLVESGGGLVQPGRSLRLSCVASGFTFADFTMHWVRQAPGKGLEWVSGISWNSNSIDYADSVKGRFTISRDNAKKSLFLQMSSLRAEDTALYYCVKDRSGYSRFYYGMDVWGQGTTVTVSS
VL: EIVMTQSPATLSVSPGERAILSCRASQNINSNLAWYQQKPGQAPRLLIYGASTRATGVPARFSGSGSGTEFTLTIRSLQSEDFAVYYCQQYYNWPITFGHGTRLEIK
notes: H1H: human IgG1 Fc; divalent
B5: H1H5771P (antibody, human IgG1, V domains shown)
VH: EVQLVESGGGLVQPGRSLRLSCAASGFSFDNYAMHWVRQAPGQGLEWVSGISWNSGSRDYADSVKGRFTISRDNARNSLFLQMNSLSNEDTAMYYCAKDKSGYGSYFYGMDVWGQGTTVTVSS
VL: EIVLTQSPGTLSLSPGDRATLSCRASQSIRNIYLAWYQQKPGQAPRLLIHGASTRATGIPDRFSGSGSGTDFTLTISRLEPEDFAVYYCQQRVSLPYTFGQGTKLEIK
notes: H1H: human IgG1 Fc; divalent
B6: H1H5772S (antibody, V domains shown)
VH: B5 VH with E1Q, N31D, S55G, S87F, N88T, M93L
VL: B5 VL with T10I, L95S
notes: H1H: human IgG1 Fc; divalent; also called H1H5772P
B7: H1H5780P (antibody, human IgG1, V domains shown)
VH: EVQLVESGGGLVQPGRSLRLSCAASGFTFDDYAMHWVRQAPGKGLEWVSGISWNGGSKDYADSVKGRFTISRDNTRNSLSLQMNSLRIEDTALYYCAKDKSGYGSFYYGLDVWGQGTTVTVSS
VL: B5 VL with N31S, L95S
notes: H1H: human IgG1 Fc; divalent

How the values were obtained:
[1] = target: T1, Soluble heterodimeric CD3 protein (hCD3-epsilon/hCD3-delta) with either a human Fc tag (hFcΔAdp/hFc) or a … (human, UniProt P07766 23-126; P04234 22-105); test: SPR Biacore 25C antigen-capture
T1 construct: also called hCD3ε/δ; not shown: Fc tag: human (hFcΔAdp/hFc)
Description: (§1) Measurements were conducted on a T200 Biacore™ instrument.
In the antigen-capture format, heterodimeric CD3 protein was captured using a rabbit anti-mouse Fc or mouse anti-human Fc and the respective antibodies were injected over the captured antigen.
(§2) Kinetic association (kₐ) and dissociation (kd) rate constants were determined by processing and fitting the data to a 1:1 binding model using Scrubber 2.0 curve fitting software. Binding dissociation equilibrium constants (KD) and dissociative half-lives (t₁₁₂) were calculated from the kinetic rate constants as: KD (M)=kd/kₐ; and t_{1/2} (min)=(ln 2/(60*kd). NT=not tested; NB=no binding observed.

[2] = target: T1, Soluble heterodimeric CD3 protein …; test: SPR Biacore 25C antibody-capture
Description: as §1
Soluble heterodimeric CD3 protein (hCD3-epsilon/hCD3-delta; SEQ ID NOs:1652/1653) with either a human Fc tag (hFcΔAdp/hFc; SEQ ID NOs:1683/1684) or a mouse Fc tag (mFcΔAdp/mFc; SEQ ID NOs:1685/1686) was injected over the antibody captured surface and the binding response was recorded. Heterodimeric CD3 protein was purified using the method described in Davis et al. (US2010/0331527).
as §2

T1 sequence (P07766 23-126 limits assumed, stated change not applied, chain 1 of 2): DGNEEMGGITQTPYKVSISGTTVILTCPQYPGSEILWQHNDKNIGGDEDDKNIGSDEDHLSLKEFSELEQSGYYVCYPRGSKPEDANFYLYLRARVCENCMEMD
T1 sequence (P04234 22-105 limits assumed, stated change not applied, chain 2 of 2): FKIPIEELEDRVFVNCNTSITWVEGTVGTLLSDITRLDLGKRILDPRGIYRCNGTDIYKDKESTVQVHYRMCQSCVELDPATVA

Row | Binder | Kd [1] [nM] | T½ [1] [min] | koff [1] [s⁻¹] | kon [1] [M⁻¹ s⁻¹] | Kd [2] [nM] | T½ [2] [min] | koff [2] [s⁻¹] | kon [2] [M⁻¹ s⁻¹]
1 | B1 | 3.97 | 21 | 0.000562 | 142000 | 233 | 10 | 0.00117 | 5020
2 | B2 | 92.4 | 1 | 0.017 | 184000 | 2920 | 0 | 0.054 | 18500
3 | B3 | 21 | 2 | 0.00736 | 350000 | 3820 | 1 | 0.0159 | 4160
4 | B4 | 0.0856 | 338 | 3.42e-05 | 399000 | 27.8 | 75 | 0.000154 | 5520
5 | B5 | 0.371 | 34 | 0.000342 | 923000 | 20.9 | 18 | 0.000626 | 30000
6 | B6 | 1.67 | 13 | 0.000869 | 519000 | 99.6 | 7 | 0.00155 | 15600
7 | B7 | 0.358 | 68 | 0.000171 | 478000 | 30.4 | 29 | 0.000399 | 13100
